Experimental data from US20110159013A1.

Target: ADDL fibril preparation (Aβ1-42 fibrils made in 10 mM hydrochloric acid)
Experiment: solution equilibrium titration; free IgG by ELISA; GraFit

Kd: 1.15 nM
Substance: monoclonal antibody WO-2
